Measurements from the nanobody polyreactivity screen of Harvey et al. (2022).

Assay: yeast display, Sf9 membrane polyspecificity reagent, FACS + sequencing; frameworks hold sequencing errors
Summary of the method: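 Galactose-induced (36–48 hours) yeast carrying a synthetic nanobody display library were exposed to 10% biotinylated, detergent-solubilized Sf9 membrane reagent at 4 °C for 1 hour. FACS followed streptavidin microbead enrichment, using low and high (top ~1%) gates for expression (anti-HA) and reagent binding (streptavidin). Colony PCR, MiSeq 2 × 250 sequencing and CDR-length filtering followed. Labels for polyreactivity reflect the gate of origin.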

| Sequence | polyreactivity (PSR sort gate) |
| --- | --- |
| QVQLVESGGGLVQAGGSLRLSCASSGYTFIRYAIGLYRQAPGKERELVAAIRGTGTSTYYADSVKGRFTISRDNAKYTVYLQMNSLKTEDTAVYYCNKVAGRSPYTRYDYWGQGTHVTVSS | low polyreactivity |
| QVQLVESGGGLVQAGGSLRLSCASSGYTFTVYAKGWYRQAPGKERELVAAITWNGASTYYADSVKGRFTISRDNAKNTVYLQMNSLKPEDTAVYYCADPYYFYRDRYRLDYWGQGTQVTVSS | low polyreactivity |
| QVQLVESGGGLVQAGGSLRLSCATSGSIFPTYAMGSYRQAPGKERELVAAISAIVGGTYYADSVKGRFTISRDNAKNTVYLQMNSLKPEDTAVYYCNKTKFQGYDYWGQGTQVTVSS | low polyreactivity |
| QVQLVESGGGLVQAGGSLRLSCATSGSIFVFNAMGWYRQAPGKERELVAAIDTSDDITYYADSVKGRFTISRDNAKNTVYLQMISLKPEDTAVYYCNADTYGLVRYYIYHYEFDYWGQGTQVTVSS | high polyreactivity |
| QVQLVESGGGLVQAGGSLRLSCAVRRTLSFYAMGWYRQAPGKERELVATISRSGGSTYYADSVKGRFTISRDNAKNTVYLQMNSLKPEDTAVYYCAVRWKAHYWGPIYYYWGQGTQVTVSS | high polyreactivity |
| QVQLVESGGGLVQAGGSLRLSCAVSGRIFRRNVMGWYRQAPGKERELVAGISYSGDSTYYADSVKGRFTISRDNAKKTVYFQMNSLKPEDTAVYYCAAAVAHYRGMYYWGQGTQVTVSS | low polyreactivity |
| QVQLVESGGGLVQAGGSLRLSCAVSGRIFRRNVMGWYRQAPGKERELVAGISYSGDSTYYADSVKGRFTLSRDNAKITDYLQMNSLKPEDTAVYYCATRYTYSTDTGYDYWGQGTQVTVSS | low polyreactivity |
| QVQLVESGGGLVQAGGSLRLSCDASARTFYRNTMGWYRQAPGKERELVAAITRSGGSTYYADSVKGRFTISRDNAKNTVYLQINRLKPEDTAVYYCAASRTYYAPYGYWGQGTQVTVSS | high polyreactivity |
| QVQLVESGGGLVQAGGSLRLSCDASGFIIRRNAMGWYRQAPGKEREFVAAITWSGGSTYYADSVKGRFTISRDNAKNTVYLQMYSLKPEDTAVYYCAATYSQYWYTQYLNSYPGYDYWRQGTQVTVSS | low polyreactivity |
| QVQLVESGGGLVQAGGSLRLSCDASGFILSSNAMGWYRQAPGKERELVAAISSSGRTYYTDSVKGRFTISRDNAKNTVYLQMNSLKPEDTAVYYCAAGGYYYAIGYWGQGTQVTLSS | high polyreactivity |
| QVQLVESGGGLVQAGGSLRLSCDASGFTFGENAMGWYRQAPGNERELVAAISWSGTYTSYADSVKGRFTLSRDNAKNTVYLQMNSLKPEDTAVYYCATGCYAYVYPFDYWGQGTLVTVSS | low polyreactivity |
| QVQLVESGGGLVQAGGSLRLSCDASGGIFFLYAMGWYRQAPGKERELVAAITNDGRTYYADSVKGRFTISRDNAKYTVYLQMNSLKPEDTAVYYCDAAALISVGDLVIYEDDYWGQGTQVTVSS | low polyreactivity |
| QVQLVESGGGLVQAGGSLRLSCDASGIIFKYNAMGWYRQAPGKERELVAAITRRGGITYYADSVKGRFTISRDNAKNTVYLQMNSLKPEDTAVYYCAADLVYYHYYPWFYYWGQGTQVTVSS | high polyreactivity |
| QVQLVESGGGLVQAGGSLRLSCDASGIIFNTYAMGWYRQAPGKERELVAAISSSGGRTYYADSVKGRFTISRDYAKNTVYLQMNSLKPEDTAVYFCAADYRGGIRYYRGAAYNYWGQGTQVTVSS | high polyreactivity |
| QVQLVESGGGLVQAGGSLRLSCDASGITFGNYAMGWYRPAPGKDRELVAAITGSGGRTYYADSVKGRFTISRDNAKNTVYLQMNSLKPEDTAVYYCNRRQYGRKKQYDYWGQGTQVTVSS | high polyreactivity |
| QVQLVESGGGLVQAGGSLRLSCDASGLIFYDNMGWYRQAPGKERELVAAISSSGGSTSYADSVKGRFTISRDNAKNTVYLQMNSLKPEDTAVYYCAAELGYIGSYYWIYYYWGQGTQGTVSS | low polyreactivity |

| Sequence | polyreactivity (PSR sort gate) |
| --- | --- |
| QVQLVESGGGLVQAGGSLRLSCDASGLILGINSMGWYRQAPGKERELVAAISSSGGRTSYADSVKGRFTISRDNAKNTVYLQMNSLKPEDTAVYYCAKRRTTYSHYDYWGQGTQVTVSS | low polyreactivity |
| QVQLVESGGGLVQAGGSLRLSCDASGNIFKSYVMGWYRQAPGKERELVAAITWSGGSTYYADSVKGRFTISRDNAKNTVYLQMNSLKPEDTAVYYCAAYPRRYRTTYDYWGQGTQVTVSS | high polyreactivity |
| QVQLVESGGGLVQAGGSLRLSCDASGNIFYPNAMGLYRQAPGKERELVAAISSSGGSTYYADSVKGRFTISRDNAKNTVYLQMNSLKPEDTAVYYFAKDRSYAYYLWPYPTGYDYWGQGTQVTVSS | low polyreactivity |
| QVQLVESGGGLVQAGGSLRLSCDASGNTFHTNAMGWYRQAPGKERELVAAITGGGSTYYADSVKGRFTISRDNAKKTVYLQMNSLKPEDTAVYYCNTDVPYGLDVSDTIDYFYWGQGTKVTVSS | low polyreactivity |
| QVQLVESGGGLVQAGGSLRLSCDASGRIFHIYAMGWYREAPGKERELVASISWSGDSTYYADSVKGRFTISRDNAKNTVYLQINSLKPEDTAVYYFAAEGEETEGYDYDYWGQGTQVTVSS | low polyreactivity |
| QVQLVESGGGLVQAGGSLRLSCDASGRIFQYNAMGWSRQAPGKLRELVAAITVGGSTNYADSVTGRFTISRDNAKNTVYLQKNSLKPEDTAVSYCNKAWSSSWQVTYGICGQGTQVTVSS | high polyreactivity |
| QVQLVESGGGLVQAGGSLRLSCDASGRIFYRYTMGWYRQAPGKERELVAAITDDSSTDYADSVKGRFTISRDNAKNTVYLQMNSLKPEDTAVYYCNADWYWKYDYWGQGTQVTVSS | low polyreactivity |
| QVQLVESGGGLVQAGGSLRLSCDASGRIIQQYAMGWYRQAHGKERELVDAISRGGSTYYADSVKGRFTISRDNAKNTVYLQMNSLKPEDTAVYYCAVRSRRGLKYDYWGQGTQVTVSS | high polyreactivity |
| QVQLVESGGGLVQAGGSLRLSCDASGRTFFYNAMGLYRQAPGKERELVAAISKNGGNTYYADSVKGRFTISRDNAKNTVYLQMNSLKPEDTAVYYCAARQSRTGPDRNDYWGQGTQVTVSS | high polyreactivity |
| QVQLVESGGGLVQAGGSLRLSCDASGRTFKQNAMGWYRQAPGKERELVATIRNGVNTNYEDSVKGRFTISRDNAKNTVYLQMNSLKPEDTAVYYCAARYWQAHAFQGNTGYSWQYGYWGQGTQVTVSS | high polyreactivity |
| QVQLVESGGGLVQAGGSLRLSCDASGRTFVRYAMGWYRQAPGKERELVARITSRGTSTYYADSVKGRFTISRDNAKNTVYLQMNSLKPEDTAVYYCNKVRTFRDKSRYDYWGQGTQVTVSS | low polyreactivity |
| QVQLVESGGGLVQAGGSLRLSCDASGRTIRHNAMGWYRQAPGKERELVAAISKRGGRTYYADSVKGRFTISRDNAKNTVYLQMNSLKPEDTAVYYCATRSSGYSLGDYWGQGTQVTVSS | high polyreactivity |
| QVQLVESGGGLVQAGGSLRLSCDASGSIFEYYAMGWYRQAPGKERELVAAIRVSDVNTYYADSVKGRFTISRDNAKNTVYFQMNSLKPEDTAVYYCANAYKGYSDFDYWGQGTQVTVSS | high polyreactivity |
| QVQLVESGGGLVQAGGSLRLSCDASGSIFGINVMGWYRQAPGTERELVARINDGADTNYADSVKGRFTISRDNAKNTVYLQMNSLKPEDTAVYYCAKPYYDGRTHFDSWGQGTQVTVSS | low polyreactivity |
| QVQLVESGGGLVQAGGSLRLSCDASGSIFGPYARGWYRQEPGKERELVAAITWTGGRTYYADSVKGRFTISRDNAKNTVYLQMNSLQPEDTAVYYFAADYSPSTWDLYYTLYYYWGQGTQVTVSS | low polyreactivity |
